# Test results published in patent publication US20220195015A1 (published 2022).
# Columns and labels:
# [1] = target: SARS-CoV-2 receptor binding domain (RBD), wild type (SARS-CoV-2, UniProt P0DTC2 319-539); experiment: ELISA, RBD coated on the plate, antibody titrated
# [2] = target: SARS-CoV-2 spike receptor binding domain (RBD), wild type (SARS-CoV-2, UniProt P0DTC2 319-539); experiment: ELISA on coated RBD protein
# [3] = target: SARS-CoV-2 RBD (S protein residues 319-539), wild type (SARS-CoV-2, UniProt P0DTC2 319-539); experiment: ELISA, RBD coated on plate, mAb titrated
Binder,EC50 [1] [ng/mL],EC50 [3] [ng/mL],further results
"C587 (antibody, V domains shown) VH: QVQLVQSGAEVKKSGSSVKVSCKASGGSFSSYAISWVRQAPGQGLEWMGGIIPIFGTAKYAQKFQGRVTITADESTSTAYMELSSLRSEDTAVYYCASRWEQLNGGSWHYFDYWGQGTLVTVSS VL: QSALTQPASVSGSPGQSITISCTGTRSDVGRNNLVSWYQHHPGKAPKVMIYEGSKRPSGVSTRFSGSKSGNTASLTISGLQAEDEADYYCCSYAGSSTFEGVFGGGTKLTVL [C587, listing 1 of 2 here]",4.39,–,–
"C588 (antibody, V domains shown) VH: EVQLVESGGGLVQPGGSLKLSCAASGFTFSGSAMHWVRQASGKGLEWVGRIRNKANSYATAYGASVRGRFTVSRDDSKNTAYLQMNSLKIEDTAVYYCTKDIAAGIPALNWFDSWGQGTLVTVSS VL: EIVLTQSPATLSLSPGERATLSCRASQSVSSYLAWYQQKPGQAPRLLIYDASNRATGIPARFSGSGSGTDFTLTISSLEPEDFAVYYCQQHTNWPPRITFGGGTKVEIK [C588, listing 1 of 2 here]",1.36,–,–
"C589 (antibody, V domains shown) VH: QVQLQESGPGLVKPSQTLSLTCTVSGGSISSGDYYWSWIRQPPGKGLEWIGYIYYSGSTNYNPSLRSRVTISVDTSKNQFSLRLRSVTAADTAVYYCARDAIGSASYGVEYFQHWGQGTLVTVSS VL: not shown [C589, listing 1 of 2 here]",6.61,–,–
"C590 (antibody, V domains shown) VH: QVQLVQSGAEVKKPGASVKVSCKVSGYNLTELSMYWVRQAPGKGLEWMGGFDPEDGGPIHAQKFQGRVTMTEDPSTDTAYMELRSLRSEDTALYYCATGGLFMIRGLEIWGRGTLVTVSS VL: EIVLTQSPGTLSLSPGERATLSCRASQSISYTSLAWYQQKPGQAPRLLIFGASRGATGTPDRFSGSWSGTDFTLTISRLEPEDFAVYYCQQYGNSPRLSFGGGTKVEIK [C590, listing 1 of 2 here]",2.81,–,–
"C591 (antibody, V domains shown) VH: QVQLVQSGAEVKKPGASVKVSCKASGYILTDYFIHWVRQAPGQGLEWMGWINPNSGGTNYAQKFQGRVTMTRDTSISTAYMELSRLRSDDTAVYHCARYKGTTVNTNYYYGMDVWGQGTTVTVSS VL: not shown",3.83,–,–
"C592 (antibody, V domains shown) VH: QVQLVQSGAEVKKPGASVKVSCKASGYTFTDYFNHWVRQAPGQGLEWMGWINPNSGGTNSAQKFQGRVTMTRDTSITTVYMELSRLRSDDTAVYYCARYKGTTVNTNYYYGMDVWGQGTTVTVSS VL: SYELTQPPSVSVSPGQTASITCSGDKLRNKYACWYQQKAGQSPMLVIYQDTKRPSGIPERFSGSNSGNTATLTISGTQAMDEADYYCQAWDISTVVFGGGTKLTVL",6,–,–
"C593 (antibody, V domains shown) VH: QVQLVQSGAEVKKPGASVKVSCKASGYTFTSYDINWVRQAPGQGLEWMGWMNPNSGNTDYAQKFQGRFTMTRNTSISTAYMELSSLRSEDTAVYYCASRRWDPLTFYYYMVVWGKGTTVTVSS VL: not shown",4.36,–,–
"C594 (antibody, V domains shown) VH: QVQLVESGGGVVQPGRSLRLSCAASGFTFSSYGMHWVRQAPGKGLEWVAVISDDGSNKYYADSVKGRFTISRDNSKNTLYLQMNSLRAEDTAVYYCAKSWWLSENWFDPWGQGTLVTVSS VL: EIVMTQSPATLSVSPGERATLSCRASQSVSSNLAWYQQKPGQAPRLLIYGASTRATGIPARFSGTGSGTEFTLTISSLQSEDFAVYYCQQYNNWPLTFGGGTKVEIK",2.63,–,–
"C595 (antibody, V domains shown) VH: QVQLVESGGGVVQAGRSLRLSCAASGFTFSSFGLHWVRQAPGKGLEWVAVISDDGANKYYADSVKGRFTISRDNSKNTLYLQMNSLRADDTAKYYCAKSWWLSENWFDPWGQGTLVTVSS VL: EIVMTQSPATLSVSPGERATLSCRASQSVRSNLAWYQQKPGQAPRLLIYGASTRATGIPARFSGSGSGTDFTLTISSLQSEDFAVYYCQQYNNWPLTFGGGTKVEIK",2.04,–,–
"C596 (antibody, V domains shown) VH: QVQLVESGGGVVQPGRSLRLSCAASGITFSHYGMHWVRQAPGKGLEWVALISSDGSKKYYADSVKGRFTISRDNSKSTLYLQMNSLRAEDTAIYYCAKDLGYYYGPPYGPDYWGQGTLVTVSS VL: DIQMTQSPSSLSASVGDRVTITCQASQDVSNSLNWYQQKPGKAPKLLIYDASNLETGVPSRFSGSGSGTDFSFTISSLQPEDIATYYCLQYDNFSMYTFGQGTKLEIK",21,–,–
"C002 (antibody, V domains shown) VH: EVQLVESGGGVVQPGRSLRLSCAASGFTFSIYGMHWVRQAPGKGLEWVAVISYDGSNKYYADSVKGRFTISRDNSKNTLYLQMNSLRAEDTAVYYCAKEGRPSDIVVVVAFDYWGQGTLVTVSS VL: not shown",–,–,EC50 [2]: 1.98 ng/mL
"C021 (antibody, V domains shown) VH: QVQLQESGPGLVKPSQTLSLTCTVSGGSISSGGYYWSWIRQHPGKGLEWIGYIYYSGSTYYNPSLKSRVTISVDTSKNQFSLKLSSVTAADTAVYYCARVWQYYDSSGSFDYWGQGTLVTVSS VL: not shown",–,–,EC50 [2]: 4.19 ng/mL
"C582 (antibody, V domains shown) VH: QVQLVESGGGVVQPGRSLRLSCVASGFTFSYFDMHWVRQAPGKGLEWVALISHDGSTTFYGDSARGRFTISRDNSRNTLDLQMNSLRPEDTAVYFCAKPVDAAMFDFWGQGTLVTVS VL: SYELTQPPSVSVAPGKTARITCGGNNIGSKSVHWYQQRPGQAPVLVIYYDSDRPSGIPERFSGSNSGNTATLTISRVEAGDEADFYCQVWDRSTNHLVVFGGGTQLTVL",–,8.43,–
"C583 (antibody, V domains shown) VH: EVQLVESGGGLIQPGGSLRLSCAASILTVSRNYMSWVRQAPGKGLEWVSSIYSGGTTYYADSVKGRFTISRDDSKNTLYLQMNSLRAEDTAVYYCARPVVGGRAGMDVWGQGTTVTVSS VL: DIQMTQSPSSLSASVGDRVTITCQASQDINKYLNWYQQKPGKAPKLLIYDASNLETGVPSRFSGSGSGTDFTFTISSLQPEDIGTFYCLHNDNPPLTFGGGTKVEIK",–,4.42,–
"C584 (antibody, V domains shown) VH: EVQLVESGGGLVQPGGSLRLSCAASGFTFSTYDMHWVRQATGKGLEWVSAIGTAGDKYYPGSVKGRFTISRENAKNSLYLQMNSLRAGDTAVYYCVRAGYSSGWPLYWYFDLWGRGTLVTVSS VL: DIQMTQSPSSLSASVGDRVTITCRASQSISSYLNWYQQKPGKAPKFLIYAASSLQSGVPSRFSGSGSGTDFTLTISNLQPEDFATYYCQQSYRTPPEFTFGPGTKVDIK",–,10.5,–
"C585 (antibody, V domains shown) VH: QVQLQESGPGLVKPSETLSLTCTVSGDSISSYFWSWIRQPPGRGLEWIGYIHDSVNTNYNPSLKSRVTISVDTSKSQFSLRLSSVTAADTAVYYCARCAWLRGSFDYWGQGTLVTVSS VL: NFMLTQPHSVSESPGKTVTISCTGSSGSIASNYVQWYQQRPGSAPTTVIYEDNQRPSGVPDRFSGSIDSSSNSASLTISGLKTEDEADYYCQSYDFSSHYVFGTGTKVTVL",–,11,–
"C586 (antibody, V domains shown) VH: EVQLVESGGGLIQPGGSLRLSCTASGLIVSSNYMSWIRQAPGKGLEWVSLIYSGGSTFYADSVKGRFTISRDNSKNTLFLHMNSLRAEDTAVYYCARHPYGTDVWGQGTTVTVSS VL: DIQMTQSPSSLSASVGDRVTITCQASQDIVKYLNWYQQKSGKAPKLLIHDASNLETGVTSRFSGSGSGTHFTFTISSLQPEDLATYYCQQYDNLPITFGQGTRLEIK",–,5.42,–
"C587 (antibody, V domains shown) VH: QVQLVQSGAEVKKSGSSVKVSCKASGGSFSSYAISWVRQAPGQGLEWMGGIIPIFGTAKYAQKFQGRVTITADESTSTAYMELSSLRSEDTAVYYCASRWEQLNGGSWHYFDYWGQGTLVTVSS VL: QSALTQPASVSGSPGQSITISCTGTRSDVGRNNLVSWYQHHPGKAPKVMIYEGSKRPSGVSTRFSGSKSGNTASLTISGLQAEDEADYYCCSYAGSSTFEGVFGGGTKLTVL [C587, listing 2 of 2 here]",–,4.39,–
"C588 (antibody, V domains shown) VH: EVQLVESGGGLVQPGGSLKLSCAASGFTFSGSAMHWVRQASGKGLEWVGRIRNKANSYATAYGASVRGRFTVSRDDSKNTAYLQMNSLKIEDTAVYYCTKDIAAGIPALNWFDSWGQGTLVTVSS VL: EIVLTQSPATLSLSPGERATLSCRASQSVSSYLAWYQQKPGQAPRLLIYDASNRATGIPARFSGSGSGTDFTLTISSLEPEDFAVYYCQQHTNWPPRITFGGGTKVEIK [C588, listing 2 of 2 here]",–,1.36,–
"C589 (antibody, V domains shown) VH: QVQLQESGPGLVKPSQTLSLTCTVSGGSISSGDYYWSWIRQPPGKGLEWIGYIYYSGSTNYNPSLRSRVTISVDTSKNQFSLRLRSVTAADTAVYYCARDAIGSASYGVEYFQHWGQGTLVTVSS VL: not shown [C589, listing 2 of 2 here]",–,6.61,–
"C590 (antibody, V domains shown) VH: QVQLVQSGAEVKKPGASVKVSCKVSGYNLTELSMYWVRQAPGKGLEWMGGFDPEDGGPIHAQKFQGRVTMTEDPSTDTAYMELRSLRSEDTALYYCATGGLFMIRGLEIWGRGTLVTVSS VL: EIVLTQSPGTLSLSPGERATLSCRASQSISYTSLAWYQQKPGQAPRLLIFGASRGATGTPDRFSGSWSGTDFTLTISRLEPEDFAVYYCQQYGNSPRLSFGGGTKVEIK [C590, listing 2 of 2 here]",–,2.81,–
